From article PMC6016244, “Escherichia coli ZipA Organizes FtsZ Polymers into Dynamic Ring-Like Protofilament Structures” (mBio, 2018)

T1: Alexa Fluor 488-labeled FtsZ (E. coli, UniProt P0A9A6 1-383, Alexa Fluor 488 (succinimidyl ester probe, 1:10 molar ratio); labelled residues not stated)
T1 construct: Cell division protein FtsZ, Escherichia coli; wild type; Same protein as m1, with a fluorescent label; used on supported lipid bilayers; also called FtsZ-Alexa Fluor 488; FtsZ Alexa Fluor 488
T1 sequence (looked up): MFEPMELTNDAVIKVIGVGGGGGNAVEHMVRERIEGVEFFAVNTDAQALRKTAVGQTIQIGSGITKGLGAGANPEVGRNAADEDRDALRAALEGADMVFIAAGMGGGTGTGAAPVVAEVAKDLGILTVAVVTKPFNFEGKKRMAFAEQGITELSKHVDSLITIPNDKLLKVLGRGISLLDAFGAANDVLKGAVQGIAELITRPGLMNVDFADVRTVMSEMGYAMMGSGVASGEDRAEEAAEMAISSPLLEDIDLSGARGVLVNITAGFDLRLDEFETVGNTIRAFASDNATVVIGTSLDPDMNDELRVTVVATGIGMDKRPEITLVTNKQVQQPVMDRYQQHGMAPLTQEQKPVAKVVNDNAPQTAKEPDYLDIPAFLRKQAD

B1: E. coli FtsZ (natural protein, UniProt P0A9A6 1-383, looked up)
chain: T1 sequence (looked up)
notes: Cell division protein FtsZ, Escherichia coli; wild type; Unlabelled FtsZ of the lipid monolayer / electron microscopy assays; Polymerised with GTP or GMPcPP; source: plasmid pMFV56 (pET28a-FtsZ)
B2: Alexa Fluor 647-labeled sZipA (domain or fragment)
chain: not shown
modifications: Alexa Fluor 647 (succinimidyl ester probe, 1:10 molar ratio); labelled residues not stated
notes: Cell division protein ZipA, Escherichia coli; first 25 amino acids replaced by a His6 tag; Same construct as m2, with a fluorescent label; attached to supported lipid bilayers that contain NTA lipids; also called fluorescent sZipA; not shown: His6, N-terminal, kept

Columns and labels:
[1] = biological target: the molecule itself; assay: lipid monolayer assay with negative stain electron microscopy; sZipA (1-2 µM) held by its His6 tag on E. coli polar lipid (or DOPC) monolayers with 0.5 to 10% DGS-NTA; FtsZ 0.5 to 5 µM added, then 2 mM GTP or 0.5 mM GMPcPP; Z-buffer (50 mM Tris-HCl pH 7.5, 300 mM KCl, 5 mM MgCl2); control: FtsZ on NTA monolayers without sZipA
[2] = biological target: T1, Alexa Fluor 488-labeled FtsZ; assay: self-organization assay on supported lipid bilayers, confocal and STED fluorescence microscopy; Alexa Fluor 647-labeled sZipA attached to supported bilayers of E. coli polar lipids with 0.5% NTA lipids (low density); 1 µM FtsZ-Alexa Fluor 488 added, then 2 mM GTP or 0.5 mM GMPcPP; Z-buffer; conditions: both partners purified

Binder | binding result [1] | binding result [2]
B1 | binds | –
B2 | – | binds
